First the molecules themselves.
B1: Azoarcus group I ribozyme (parent)
chain: GUGCCUUGCGCCGGGAAACCACGCAAGGGAUGGUGUCAAAUUCGGCGAAACCUAAGCGCCCGCCCGGGCGUAUGGCAACGCCGAGCCAAGCUUCGGCGCCUGCGCCGAUGAAGGUGUAGAGACUAGACGGCACCCACCUAAGGCAAACGCUAUGGUGAAGGCAUAGUCCAGGGAGUGGCGAAAGUCACACAAACCGG

This data set covers variants of B1. The data set can be described thus: reverse-splicing fitness (ratio to wild type); higher = more active; in vitro selection; Mg2+ level not given. The procedure, abridged:
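An in vitro group I ribozyme library with randomized positions was T7-transcribed and gel-purified. In triplicate, 10 pmol RNA in EPPS pH 7.5 was reacted with 50 pmoles of a 30-nt RNA substrate for 1 h at 37 °C across several added MgCl2 levels (1–48 mM), then stopped with EDTA. Products were reverse transcribed from a substrate-complementary primer, PCR-amplified and sequenced (HiSeq 4000). Fitness is a variant's read proportion after selection over that before, normalised to wild type.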
On to C82U A111C A120U C150G U176A, for which the reverse-splicing fitness was determined as 0.0035. For C82U A111C A120U C150G U176G, the reverse-splicing fitness was found to be 0.00291. For C82U A111C A120G C150A U176A, the reverse-splicing fitness was 0.0152. Turning to C82U A111C A120G C150A U176C, the reverse-splicing fitness was 0.0182. To C82U A111C A120G C150A U176G belongs 0.00579; to C82U A111C A120U A145G C150G C169U, 0.0067. To C82U A111C A120U A145G C150G C169G belongs 0.00651. To C82U A111C A120U A145G C150G C169A belongs 0.00772. Consider C82U A111C A120U A145G C150A C169A, for which the reverse-splicing fitness stood at 0.00616. To C82U A111C A120U A145G C150A C169U belongs 0.0043. The figure for C82U A111C A120U A145G C150A C169G is 0.00517; for C82U A111C A120U C150G C169U U176C it is 0.00516. To C82U A111C A120U C150G C169U U176G belongs 0.00265. C82U A111C A120U C150G C169U U176A: the reverse-splicing fitness amounted to 0.00421. To C82U A111C A120U C150U C169A U176C belongs 0.00372. The figure for C82U A111C A120U C150U C169A U176G is 0.00291; for C82U A111C A120U C150U C169A U176A it is 0.00486. The figure for C82U A111C A120U is 0.0257; for C82U A111C A145C C150A C169U U176C it is 0.0106; for C82U A111C A145C C150A C169U U176A it is 0.0154.

On to C82U A111C A145C C150A C169U U176G, for which the reverse-splicing fitness amounted to 0.00709.

On to C82U A111C A120U A145G C150A U176C, for which the reverse-splicing fitness is 0.00717. For the variant C82U A111C A120U A145G C150A U176G, the reverse-splicing fitness stood at 0.00319. To C82U A111C A120U A145G C150A U176A belongs 0.00653; to C82U A111C A120U A145C C150U C169U U176C, 0.00255; to C82U A111C A120U A145C C150U C169U U176A, 0.00314. With C82U A111C A120U A145C C150U C169U U176G, the reverse-splicing fitness was determined as 0.00224. To C82U A111C A120G C150U C169U U176C belongs 0.014; to C82U A111C A120G C150U C169U U176A, 0.017; to C82U A111C A120G C150U C169U U176G, 0.00513. The figure for C82U A111C A120U C150G C169G U176C is 0.00317; for C82U A111C A120U C150G C169G U176A it is 0.00425. The figure for C82U A111C A120U C150G C169G U176G is 0.00254; for C82U A111C A120U A145U C150G C169U it is 0.00311; for C82U A111C A120U A145U C150G C169G it is 0.00306. Turning to C82U A111C A120U A145U C150G C169A, the reverse-splicing fitness came to 0.00391. The figure for C82U A111C A120U A145G C150A C169U U176C is 0.00385; for C82U A111C A120U A145G C150A C169U U176A it is 0.00566; for C82U A111C A120U A145G C150A C169U U176G it is 0.00293. To C82U A111C A120U A145G U176G belongs 0.00307.

Regarding C82U A111C A120U A145G U176A, the reverse-splicing fitness is 0.00722. To C82U A111C A120U A145G U176C belongs 0.0113; to C82U A111C A120U A145C C150G C169U U176G, 0.00217. As to C82U A111C A120U A145C C150G C169U U176A, the reverse-splicing fitness was determined as 0.00332.

As to C82U A111C A120U A145C C150G C169U U176C, the reverse-splicing fitness amounted to 0.00284. The figure for C82U A111C A120G C169U is 0.0077; for C82U A111C A120G C169A it is 0.00844. To C82U A111C A120G C169G belongs 0.0104.

Turning to C82U A111C A120U A145U C150G, the reverse-splicing fitness was 0.00613. The figure for C82U A111C A120U A145U C150U is 0.0186; for C82U A111C A120U A145U C150A it is 0.00535. To C82U A111C A120U A145U C150U C169A U176G belongs 0.00229; to C82U A111C A120U A145U C150U C169A U176A, 0.00306.

With C82U A111C A120U A145U C150U C169A U176C, the reverse-splicing fitness was determined as 0.00282. To C82U A111C A120G C150G C169G U176G belongs 0.00455.

C82U A111C A120G C150G C169G U176C: the reverse-splicing fitness stood at 0.00488. The figure for C82U A111C A120G C150G C169G U176A is 0.00584. To C82U A111C A120U C150A C169A U176C belongs 0.00354. Regarding C82U A111C A120U C150A C169A U176A, the reverse-splicing fitness came out at 0.00438. Take C82U A111C A120U C150A C169A U176G: the reverse-splicing fitness came out at 0.00303. To C82U A111C A120U A145C C150A C169A U176C belongs 0.00295. To C82U A111C A120U A145C C150A C169A U176G belongs 0.00183; to C82U A111C A120U A145C C150A C169A U176A, 0.00222; to C82U A111C A120U C150A U176A, 0.00441. To C82U A111C A120U C150A U176G belongs 0.00295; to C82U A111C A120U C150A U176C, 0.00573. For the variant C82U A111C A120U A145C C169G, the reverse-splicing fitness was 0.00298. On to C82U A111C A120U A145C C169U, for which the reverse-splicing fitness turned out to be 0.0039.

With C82U A111C A120U A145C C169A, the reverse-splicing fitness amounted to 0.00236. To C82U A111C A145C belongs 0.239; to C82U A111C A120U C150G, 0.00681; to C82U A111C A120U C150U, 0.0166.

As for C82U A111C A120U C150A, the reverse-splicing fitness is 0.0078. Regarding C82U A111C A145C C150A, the reverse-splicing fitness stood at 0.0154. To C82U A111C A120U A145G C150G C169G U176G belongs 0.00376; to C82U A111C A120U A145G C150G C169G U176C, 0.00782. With C82U A111C A120U A145G C150G C169G U176A, the reverse-splicing fitness came to 0.00829.

With C82U A111C A120U A145U C150U C169G U176C, the reverse-splicing fitness worked out at 0.00305. To C82U A111C A120U A145U C150U C169G U176G belongs 0.00201. The figure for C82U A111C A120U A145U C150U C169G U176A is 0.00231; for C82U A111C A120G C150G C169U U176G it is 0.00505. To C82U A111C A120G C150G C169U U176C belongs 0.0121; to C82U A111C A120G C150G C169U U176A, 0.00853. On to C82U A111C A120U A145G C150G C169U U176A, for which the reverse-splicing fitness worked out at 0.0084.

For the origin of these results see the RNAGym collection of RNA variant scans (doi:10.1093/molbev/msab373).
